Patent US20220017636A1 (Amgen, published 2022)

Columns and labels:
Assay in all cases: flow cytometry, peptide-loaded T2 cells;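 note: binding of single-chain Fv antibody constructs, raised in XenoMouse, to peptide-pulsed T2 cells measured by flow cytometry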
[1] = target: T1, MAGEB2 peptide … (SEQ ID NO: 1) complexed with HLA-A*02:01 on the cell surface (human)
T1 construct: whole, on cells; also called pMAGE-HLA; MAGEB2 pMHC
Procedure: (§1) Binding of pMAGE-HLA scFv constructs, generated from the XenoMouse, on peptide loaded T2 cells was evaluated by flow cytometry.

[2] = target: T2, STXBP5 peptide complexed with HLA-A*02:01 on T2 cells (human)
T2 construct: whole, on cells
Procedure: as §1

[3] = target: T3, MB peptide complexed with HLA-A*02:01 on T2 cells (human)
T3 construct: whole, on cells
Procedure: as §1

[4] = target: T4, DPYSL4 peptide complexed with HLA-A*02:01 on T2 cells (human)
T4 construct: whole, on cells
Procedure: as §1

[5] = target: T5, SLK peptide complexed with HLA-A*02:01 on T2 cells (human)
T5 construct: whole, on cells
Procedure: as §1

[6] = target: T6, MYOF peptide complexed with HLA-A*02:01 on T2 cells (human)
T6 construct: whole, on cells
Procedure: as §1

[7] = target: T7, KEA peptide complexed with HLA-A*02:01 on T2 cells (human)
T7 construct: whole, on cells
Procedure: as §1

[8] = target: T8, ADF peptide complexed with HLA-A*02:01 on T2 cells (human)
T8 construct: whole, on cells
Procedure: as §1

[9] = target: T9, CNDP2 peptide complexed with HLA-A*02:01 on T2 cells (human)
T9 construct: whole, on cells; also called CNPD2
Procedure: as §1

[10] = target: T10, COX14 peptide complexed with HLA-A*02:01 on T2 cells (human)
T10 construct: whole, on cells
Procedure: as §1

| Binder | Signal/background [1] | Signal/background [2] | Signal/background [3] | Signal/background [4] | Signal/background [5] | Signal/background [6] | Signal/background [7] | Signal/background [8] | Signal/background [9] | Signal/background [10] |
| --- | --- | --- | --- | --- | --- | --- | --- | --- | --- | --- |
| 18181-G10 (scFv, scFv in bacterial lysate, detected with anti-Flag M2) scFv: EVQLLESGPGLVKPSQTLSLTCTVSGDSISSNPYYWSWIRQLPGKGLEWIGYISYSGSTFYNPSLKSRVTISVDTSKNQFSLNLTSVTAADTAVYYCARDRLWFGVLNYYYGMDVWGLGTTVTVSSGGGGSGGGGSGGGGSELVMTQSPLSLPVTPGEPASISCRSSQSLLHSTGYNYVDWYLQKPGQSPQLLIYLGSNRASGVPDRFSGSGSGTDFTLKISRVEAEDVGFYYCMQALQTPRTFGQGTKVEIK | 121 | 1 | 1 | 1 | 1.1 | 1 | 1 | 1 | 1.1 | 1 |
| 18093-B11 (scFv, scFv in bacterial lysate, detected with anti-Flag M2) scFv: EVQLLESGGGLVKPGGSLRLSCAASGFTFSDYYMSWIRQAPGKGLEWVSYISKSGSTIYYADSVKGRFTISRDNAKNSLYLQMNSLRAEDTAVYYCATYNYGHFDYWGQGTLVTVSSGGGGSGGGGSGGGGSELVLTQPPSVSVAPGQTARITCGGNNIGSKSVHWYQQKPGQAPVLVVYDDSDRPSGIPERFSGSNSGNTATLTISRVEAGDEADYYCQVWDSSSDHHVVFGGGTKLTVL | 219 | 1.1 | 1.2 | 1 | 1.1 | 1.2 | 1.1 | 1.1 | 1 | 1.2 |
| 18181-B8 (scFv, scFv in bacterial lysate, detected with anti-Flag M2) scFv: EVQLLESGPGLVKPSQTLSLTCTVSGGSISSGGYYWSWIRQHPGKGLEWIGYISHSGSTYYNPSLKSRVTISVDTSKNQFSLNLTSVTAADTAVYYCAREKMWFGVLNYYYGMDVWGQGTTVTVSSGGGGSGGGGSGGGGSELVMTQTPLSLPVTPGEPASISCRSSQSLLHRNGYNYLDWYLQKPGQSPQLLIYLGSNRASGVPDRFIGSGSGTDFTLEISRVEAEDVGVYYCMQALQTPSFGQGTKVEIK | 179 | 0.9 | 0.9 | 1 | 1 | 1 | 0.9 | 1 | 1 | 0.9 |
| 18089-B2 (scFv, scFv in bacterial lysate, detected with anti-Flag M2) scFv: EVQLLESGGGLVQPGGSLRLSCAASGFTFSSYAMSWVRQAPGRGLEWVSTISISGGSTNYADSVKGRFTISRDNSKNTLYLQMNSLRAEDTAVYYCAKDGGSGWFPKLLHYGLDVWGQGTTVTVSSGGGGSGGGGSGGGGSELQMTQSPSSLSASVGDRVTITCQASQDISNYLNWYQQKPGKAPKLLIYAASSLQSGVPSRFSGSGSGTDFTLTISSLQPEDFATYYCQQSYSIPLTFGGGTKVEIK | 318 | 1 | 1.1 | 1 | 1.1 | 1.1 | 1 | 1 | 1 | 0.9 |
| 18179-E1 (scFv, scFv in bacterial lysate, detected with anti-Flag M2) scFv: EVQLLESGGGLVQPGGSLRLSCAASGFTFSNAWMSWVRQAPGKGLEWVGRIKGNTYGGTTDYAAPVKGRFTISRDDSKNTLYLQMNSLKTEDTAVYYCTTPSYSGSYYNYFSVMDVWGQGTTVTVSSGGGGSGGGGSGGGGSELVMTQSPSSLSASVGDRVTITCRTSQSISSYLNWYQQKPGRAPKLLIFAASSLQGGVPSRFSGSGSGTDFTLTISSLQPEDFATYYCQQTYSMPFTFGPGTKVDIK | 419 | 1 | 1 | 1 | 1.1 | 1 | 1 | 0.9 | 1 | 0.9 |
| 18181-A6 (scFv, scFv in bacterial lysate, detected with anti-Flag M2) scFv: EVQLLESGGGLVQPGGSLRLSCAASGFTFSNAWMSWVRQAPGKGLEWVGRIKGNTYGGTTDYAAPVKGRFTISRDDSKNTLYLQMNSLKTEDTAVYYCTTPSYSGSYYNYFSVMDVWGQGTTVTVSSGGGGSGGGGSGGGGSELVMTQSPSSLSASVGDRVTITCRASQSISSYLNWYQQKPGRAPKLLIFAASSLQGGVPSRFSGSGSGTDFTLTISSLQPEDFATYYCQQTYSMPFTFGPGTKLEIK | 430 | 1 | 1 | 1 | 1.1 | 1.1 | 0.9 | 1 | 1 | 0.9 |
| 18179-H7 (scFv, scFv in bacterial lysate, detected with anti-Flag M2) scFv: EVQLLESGGGLVQPGGSLRLSCAASGFTFSNAWMSWVRQAPGKGLEWVGRIKSKTYGGTTDYAAPVKGRFTISRDDSKNTLYLQMNSLKTEDTAVYYCTTPSYSGSYYNYFSVMDVWGQGTTVTVSSGGGGSGGGGSGGGGSELQMTQSPSSLSASVGDRVTITCRTSQSISSYLNWFQQKPGKAPKLLIFAASSLQSGVPSRFSGSGSGTDFTLTISSLQPEDFATYYCQQSYSSPFTFGPGTKVEIK | 399 | 1 | 1 | 1 | 0.9 | 1.1 | 1 | 1.1 | 1 | 1 |

Now from value to binder:

| Signal/background [1] | Signal/background [2] | Signal/background [3] | Signal/background [4] | Signal/background [5] | Signal/background [6] | Signal/background [7] | Signal/background [8] | Signal/background [9] | Signal/background [10] | Binder |
| --- | --- | --- | --- | --- | --- | --- | --- | --- | --- | --- |
| 103 | 1.1 | 1 | 1 | 1.1 | 1.1 | 1 | 1.1 | 1 | 1.1 | 18181-E2 (scFv, scFv in bacterial lysate, detected with anti-Flag M2) scFv: EVQLLESGPGLVKPSQTLSLTCTVSGDSISSNPYYWSWIRQHPGKGLEWIGYISHSGSTYYNPSLKSRVTISVDTSKNQFSLNLTSVTAADTAVYYCARDRLWFGVLNYYYGMDVWGLGTTVTVSSGGGGSGGGGSGGGGSELVMTQSPLSLPVTPGEPASISCRSSQSLLHSSGYNYLDWYLQKPGQSPQLLIYLGSNRASGVPDRFSGSGSGTDFTLKISKVEAEDVGVYYCMQALQTPRTFGQGTKVDIK |
| 140 | 1.1 | 1 | 0.9 | 1 | 1.1 | 0.9 | 1 | 1 | 0.9 | 18181-C9 (scFv, scFv in bacterial lysate, detected with anti-Flag M2) scFv: EVQLLESGPGLVKPSQTLSLTCTVSGDSISSNPYYWSWIRQLPGKGLEWIGYISYSGSTFYNPSLKSRVTISVDTSKNQFSLNLTSVTAADTAVYYCARDRLWFGVLNYYYGMDVWGLGTTVTVSSGGGGSGGGGSGGGGSELVLTQSPLSLPVTPGEPASISCRSSQSLLHRNGYNYLDWYLQKPGQSPQLLIYLGSNRASGVPDRFSGSGSGTDFTLKISRVEAEDVGVYYCMQGLQTPFTFGPGTKVEIK |
| 443 | 1 | 1 | 1.1 | 1.1 | 1.1 | 0.9 | 1.1 | 1.1 | 1.1 | 18181-F1 (scFv, scFv in bacterial lysate, detected with anti-Flag M2) scFv: EVQLLESGGGLVKPGGSLRLSCAASGFTFSNAWMSWVRQAPGKGLEWVGRIKGNTYGGTTDYAAPVKGRFTISRDDSKNTLFLQMNSLKTEDTAVYYCTTPSYSGSYYNYFSVMDVWGQGTTVTVSSGGGGSGGGGSGGGGSELVMTQSPSSLSASVGDRVTITCRTSQSISSYLNWYQQKPGRAPKLLIFAASSLQGGVPSRFSGSGSGTDFTLTISSLQPEDFATYYCQQTYSSPFTFGPGTKLEIK |
| 489 | 1 | 0.9 | 1.1 | 1 | 1 | 0.9 | 1 | 1 | 1 | 18181-G8 (scFv, scFv in bacterial lysate, detected with anti-Flag M2) scFv: EVQLLESGGGLVQPGGSLRLSCAASGFTFSNAWMSWVRQAPGKGLEWVGRIKGNTYGGTTDYAAPVKGRFTISRDDSKNTLFLQMNSLKTEDTAVYYCTTPSNSGSYYNYFSVMDVWGQGTTVTVSSGGGGSGGGGSGGGGSELVMTQSPSSLSASVGDRVTITCRTSQSISSYLNWYQQKPGKAPKLLIYAASSLQSGVPSRFSGSGSGTDFTLTISSLQPEDFATYYCQQTYSMPFTFGGGTKVEIK |
| 232 | 1.2 | 0.9 | 1.1 | 1 | 1.1 | 1 | 1 | 1.1 | 0.9 | 18181-F3 (scFv, scFv in bacterial lysate, detected with anti-Flag M2) scFv: EVQLLESGGGLVQPGGSLRLSCAASGFTFSNAWMSWVRQAPGKGLEWVGRIKGNTYGGTTDYAAPVKGRFTISRDDSKNTLFLQMNSLKTEDTAVYYCTTPSYSGSYYNYFSVMDVWGQGTTVTVSSGGGGSGGGGSGGGGSELVMTQSPSSLSASVGDRVTITCRTSQSISSYLNWYQQKPGRAPKLLIFAASSLQGGVPSRFSGSGSGTDFTLTISSLQPEDFATYYCQQSYSSPFTFGPGTKVEIK |
